Measured values from the nanobody polyreactivity screen of Harvey et al. (2022).

Assay: yeast display, Sf9 membrane polyspecificity reagent, FACS + sequencing; frameworks hold sequencing errors
Summary of the method: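 Using colony PCR, genes from sorted yeast display clones were amplified, then sequenced on MiSeq at 2 × 250 and filtered by CDR length. The clones had been stained with 10% biotinylated, detergent-solubilized Sf9 membrane reagent for 1 hour at 4 °C and sorted by FACS into low and high (top ~1%) gates on anti-HA and streptavidin fluorescence. Polyreactivity labels come from the gate of origin.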

Row | Sequence | polyreactivity (PSR sort gate)
1 | QDQLVESGGGLVQAGGSLRLSCAASGRIFRYYAMGWYRQAPGKERELVAGMSGSGGSTYYADSVKGRFTISRDNAKNTVYLQMNSLKPEDTAVYYCAADYVRVGSLHGVYTYKKYDYWGQGTQVTVSS | high polyreactivity
2 | QDQLVESGGGLVQAGGSLRLSCAASGRLFATYAMGWNRQAPGKERELVAAISDSGGRTYYADSVTGRFTSSRDNAKNTVYLQMNSLKPEDTAVYYCAAKNGDRYARGYWGQGTQVTVSS | high polyreactivity
3 | QDQLVESGGGLVQAGGSLRLSCAASGRNFYRNAMGWYRPAPGKEWEVVAAITQSSGSTYYADSVKGRCTISRDNAKHTVYLQMNSLKPEDTAVYYCAALVRKYGVDYWGQGTQVTVSS | high polyreactivity
4 | QDQLVESGGGLVQAGGSLRLSCAASGRTFDDYAMGWSRPAPGKERELVAAINSGGNTYYADSVKGRFTISRDNAKNTVYLQMNSLKREDTADYYCAAYYRDKLSGYNYWRQGTQVTVSS | high polyreactivity
5 | QDQLVESGGGLVQAGGSLRLSCAASGRTFGRYAMGWYRQAPGKERELVASISYSTDSTYYADSVKGRFTISRDNAKNTVYLQMNSLKPEDTAVYYCATDSVNVGSYVGDKHDYWGQGTQVTVSS | low polyreactivity
6 | QDQLVESGGGLVQAGGSLRLSCAASGRTFPGYAMGWYRQAPGKERELVATSTVSDGSTYYADSVKGRFTISRDNAMNTVYLHMNSLIAEDTAVYYCAKDGGRKRSYSDFDYWRQGTQVTVSS | low polyreactivity
7 | QDQLVESGGGLVQAGGSLRLSCAASGRTFRRYAMGWYRQAPGKERELVAAISASGGSTYYADSVKGRFTISRDNAKNTVYLQMNSLKPEDTAVYYCYALHRAGLFGHYPYESWGQGTQVTVSS | high polyreactivity
8 | QDQLVESGGGLVQAGGSLRLSCAASGRTFSRYALGWYRQAPGKERELVAAISWSGGTTHYADSVKGRFTISRDNAKNTVYLLMNRLKPEDTAFYYCNKLRQIEFWGQGTQVTVSS | high polyreactivity
9 | QDQLVESGGGLVQAGGSLRLSCAASGRTFSYYTMGWYRQPPGKERELVARISNRGTNTYYADSVKGRFTISRDNAKNTVYLQLNSLKPEDTAVYYCAKYYYPSIVGYDSWGQGTQVTVSS | low polyreactivity
10 | QDQLVESGGGLVQAGGSLRLSCAASGRTFTGYTMGWYRQAPGKERELVASISSSGGRTYYADSVKGRFTISRDNAKNTVFLQMKSLKPEDTAVYYCAKRGAYGYGYYSYDYWGQGTQVTVSS | high polyreactivity
11 | QDQLVESGGGLVQAGGSLRLSCAASGRTFTRYAMGWYRPAPGKERELVAAISKRGGSTYYADSVKGRFTISRDNAKNTVYLQMNSLKPEDTAVYYCAADQPYHDSEYWGQGTQVTVSS | high polyreactivity
12 | QDQLVESGGGLVQAGGSLRLSCAASGRTFTSNAMGRYRQAPGKERELVAAINFRGDSTYYADSVKGRFTISRDNAKNTVYLQMNSLKPEDSAVYYCAAVGGRSSYRLDYWGQGTQVTVSA | low polyreactivity
13 | QDQLVESGGGLVQAGGSLRLSCAASGRTFVHYVMGWYRQAPGKERELVAAITSSGGSTYADSVKGRFTISRDNAKNTVYLQMNSLKPEDTAVYYCAADYLDGVGDVEHDYWGQGTQVTVSS | low polyreactivity
14 | QDQLVESGGGLVQAGGSLRLSCAASGRTFVSNGMGWYRQAPGKERELLADINDGDDTYYADSVKGRFTISRDNAKNTVYLQMNSLKPEDTAVYYCAADPYWFFPHYDSWGQGTQVTVSS | low polyreactivity
15 | QDQLVESGGGLVQAGGSLRLSCAASGRTFVSYVMGGYRQAPGKERELVAAIRRRGGRTYYSDSVKGRFTISRDNAKNTVYLQMNSLKPEDTAVYYCAAAQPGTNAYRVGSWGQGTQVSVSS | high polyreactivity
16 | QDQLVESGGGLVQAGGSLRLSCAASGRTFVYNAMGWYRKAPGKVRELVAAITRGGSTNYADSVKGRFTISRDNAKNTVYLQMNILKPEDTAGYYCAAGLKRYGSYPWLKSGMGYWGQGTQVTVSS | high polyreactivity

Row | Sequence | polyreactivity (PSR sort gate)
17 | QDQLVESGGGLVQAGGSLRLSCAASGRTFWYYAMGWYRQATGKERELVAAISSRGGTTYYADSVKGRFTISRDNAKNTVYLQMNSVKPEDTAVYYCASERWDLWLLYDYWGQGTQVTVSS | high polyreactivity
18 | QDQLVESGGGLVQAGGSLRLSCAASGRTFYRNAMGWYRQAPGKERELVAAISGSGVRTYYADSVKGRFTISRDNAKNTVYLHMNSLKPEDTAVYYCARSVTWFRGRFSPDYGSWGQGTQVTVSS | high polyreactivity
19 | QDQLVESGGGLVQAGGSLRLSCAASGRTFYRYAMGWSRQAPGKERELVAVISTDGSSTYYADSVKGRFTISRDNAKNTVYLQMNSLKPVDTAVYYCAARAPESYVSTRAHYYWGQGTQVTVSS | high polyreactivity
20 | QDQLVESGGGLVQAGGSLRLSCAASGRTFYYSAMGWSRQAPGKERELVATMSRGITNYADSVKGRFTISRDNAKNTVYLQMNSLKPEDTAVYYCAARDGWRSHFRGDYWGQGTQVTVSS | high polyreactivity
21 | QDQLVESGGGLVQAGGSLRLSCAASGSICSEYAMGWYRQAPGKERELVAAISRSGGTTYYADSVKGRFTISRDNAKNTVFLQMNSLKPEDTAVYYCAARYFRGSYPMGYWGQGTQVTVSS | high polyreactivity
22 | QDQLVESGGGLVQAGGSLRLSCAASGSIFAYYVMGWYRQAPGKERELVAAISKSGGSTYYADSVQGRFTISRDNAKNTVYVQRNSLKPEDPAVYYCAAPQRYPRFYYWGQGTQVTVSS | high polyreactivity
23 | QDQLVESGGGLVQAGGSLRLSCAASGSIFFINAMGWYRQAPGKERELVAAITYSGGSTYYADSVKGRFTISRDNAKYTVYLQMNSLKPEDTAVYYCAADQYSFLPWIAWLLDDYWGQGTQVTVSS | low polyreactivity
24 | QDQLVESGGGLVQAGGSLRLSCAASGSIFKRYAMGWYRQAPGKERELVAAISYSGGSTYYADSVKGRFTISRDNAKNTVYLQMNSLKPEDTAVYYCAAATYRQQWHYYWGQGTQVTVSS | high polyreactivity
25 | QDQLVESGGGLVQAGGSLRLSCAASGSIFLIYAMGGYRQAPGKERELVAAITWGGGSTYYADSVKGRFTISRDNAKNTVYLQMTSLKPVDTAVYYCAAYSYSSSFGYRYDYWGQGTQVTVSS | high polyreactivity
26 | QDQLVESGGGLVQAGGSLRLSCAASGSIFQSNAMGWYRQAPGKERELVAAITSVGRTNYADSVKGRFTIARDNAKNTVYLQMNSLKPEDTAVYYCAADLRGDNRYYYWGQGTQVTVSS | low polyreactivity
27 | QDQLVESGGGLVQAGGSLRLSCAASGSIFQSYAMGWYRQAPGKERELVAANDRSGTSTYYADSVKGRFTISRDNAKNTVYLQLNSLKPEDTAVYYCAAVSSRGRFGYTVQIEYDYWGQGTQVTVSS | low polyreactivity
28 | QDQLVESGGGLVQAGGSLRLSCAASGSIFRRNSIGWYRQAPGKERELVAAIRWSSGSTYYADSVKGRFTISRDNAKNTVYLQMNSLKPEDTAVYYCAAAKRAYSYVLHAFYYWGQGTQVTVSS | high polyreactivity
29 | QDQLVESGGGLVQAGGSLRLSCAASGSIFSYTMGCYRQAPAKQRELVAAITSGGITYYADSVKGRFSISRDNAKNTVYLQMNSLKPEDTAVYYCADGWSSYRFGYWGQGTQVTVSS | low polyreactivity
30 | QDQLVESGGGLVQAGGSLRLSCAASGSIFVIYAMGWYRPAPGKERQLVAAITTIGGRTYYADSVKGRFTISRDHAKNTVYLQMNSLKPEDTAVYYCAADIRSNRLYDGGYWGQGTQVTVSS | low polyreactivity
31 | QDQLVESGGGLVQAGGSLRLSCAASGSILRAYAMGWYRQAPGKERELVADIDWSAGITHYADSVKGRFTISRDNAMNPVYLQMNSLKPEDTAVYYCSARYYWYDYIVYYGDYWGQGTLVTVSS | high polyreactivity
